Laboratory results: US20220226430A1
“And” between values parts separate entries of the source, which are not always exact repeats. Equal entries are not always repeated.

Molecular target: TcdB from C. difficile strain M68 (Clostridium difficile strain M68)
Assay: cell-based or functional assay

| Binder | EC50 against TcdB (in vitro neutralization) [pM] | TcdB neutralization EC50 (Vero cells, CellTiterGlo) [pM] | fold more efficacious than bezlotoxumab at inhibiting TcdB (CellTiter-Glo assay) [fold] | fold higher neutralization activity than D16 alone |
| --- | --- | --- | --- | --- |
| DARPin dimer DLD-4 (designed binder) GSDLGKKLLEAARAGQDDEVRILMANGADVNADDRIGMTPLHLAAIGGHLEIVEVLLKNGADVNADDVHGRTPLHLAAGRGHLEIVEVLHGADVNAPDRWGRTPLHLAAHHGHLEIVEVLLKYGADVNAQDKFGKTAFDISIDNGNEDLAEILQSSSEFGGGGSGGGGSGGGGSASDLGKKLLEAARAGQDDEVRILMANGADVNATDHLGVTPLHLAAVLGHLEIVEVLLKHGADVNAYDILGRTPLHLAAWRGHLEIVEVLLKYGADVNADDTSGTTPLHLAAGEGHLEIVEVLLKYGADVNAQDKFGKTAFDISIDNGNEDLAEILQSSS | 20 | 16 | 33 | – |
| dimeric DARPin U3D16 (designed binder) GSDLGKKLLEAARAGQDDEVRILMANGADVNADDRIGMTPLHLAAIGGHLEIVEVLLKNGADVNADDVHGRTPLHLAAGRGHLEIVEVLHGADVNAPDRWGRTPLHLAAHHGHLEIVEVLLKYGADVNAQDKFGKTAFDISIDSGNEDLAEILQSSSGGGGSGGGGSGGGGSGSDLGKKLLEAARAGQDDEVRILMANGADVNAADRYGPTPLHLAAYRGHLEIVEVLLKHGADVNAKDVLGWTPLHLAAWIGHLEIVEVLLKNGADVNARDRTGETPLHLAAAIGHLEIVEVLLKNGADVNAQDKFGKTAFDISIDNGNEDLAEILQSSS | – | – | – | 10 fold and 20 fold |
